The values that follow come from patent US20200223906A1 (Adimab, published 2020).

The target of assay [1] is RSV F protein of subtype A (strain A2) on recombinant mKate-RSV (respiratory syncytial virus subtype A …, UniProt P03420 26-574). Briefly: cell-based or functional assay.
Assay [2] concerns the target RSV F protein of subtype B (18537) on recombinant mKate-RSV (respiratory syncytial virus subtype B …, UniProt P13843 26-574). Briefly: cell-based or functional assay.
Assay [3] addresses T1, RSV F ectodomain stabilized in the postfusion conformation (F ΔFP), subtype B (respiratory syncytial virus subtype B, UniProt P13843 26-109; P13843 147-524).
T1 construct: extracellular domain; Trimer; also called Postfusion subtype B
Briefly: BLI (Octet), IgG on AHQ sensor, 100 nM antigen. A general note: In BLI a coated tip is dipped into the sample, and binding shifts an interference pattern.

In assay [4] the target is T2, RSV F ectodomain stabilized in the postfusion conformation (F ΔFP), subtype A (respiratory syncytial virus subtype A, UniProt P03420 26-109; P03420 147-524).
T2 construct: extracellular domain; Trimer; also called Postfusion subtype A
Briefly: BLI (Octet), IgG on AHQ sensor, 100 nM antigen.

B1: ADI-19014 (antibody, V domains shown)
VH: EVQLVESGPRLVKPSQTLSLTCTVYGGSISGGQNYYSWVRQPPGKGLEWIGYIFSSGTTYYKPSLKSRISISFDTSKNQFSLNLASVTAADTAVYFCARSADIDIVWGSSLYMPLWGQGTLVTVSS
VL: EIVLTQSPGTLSLSPGQRATLSCRATHIVSNSYLAWYQQKPGQAPRLLIHGVSIRATGIPDRFSGSGSGTDFTLTISRLEPEDFAVYFCQQYGTSPWTFGQGTKLEIK
notes: full-length IgG; also called Antibody Number 362
One may read the Kd as the free concentration of one partner at which half of the binding sites on the other are occupied at equilibrium, for simple one-to-one binding. Read a high Kd as lower affinity. Regarding B1, in assay [1], the “Neut IC50 subtype A” value stood at 1.75 µg/mL. Also, the “Neut IC50 subtype B” value in assay [2] was more than 10 µg/mL. Moreover, in assay [3], binding was characterised by a dissociation constant (Kd) of 0.277 nM.

B2: ADI-18999 (antibody, V domains shown)
VH: QVQLVQSGAEVKKPGSSVKVSCKASGGRFSSDAISWVRQAPGQGLEWMGGIIPIRGTPTYAQKFQGRVTIIADESTTTSYMEMSSLRSEDTAVYYCARPNYDILTGYNDAFDIWGQGTMVTVSS
VL: QSVLTQPRSVSGSPGQSVTISCTGTSSDVGGYNYVSWYQQHPGKVPRLMIYDVSKRPSGAPDRFSGSKSGNTASLTISGLQAEDEADYYCCSYAGGLYVFGTGTKLTVL
notes: full-length IgG
As for B2, the “Neut IC50 subtype A” value in assay [1] amounted to 1.8 µg/mL. Further, the “Neut IC50 subtype B” value in assay [2] worked out at 6.46 µg/mL. For the same molecule, the values for the Kd in assay [4] and in assay [3] were 0.167 nM and 0.141 nM, respectively.

B3: ADI-18981 (antibody, V domains shown)
VH: EVQLQESGSRLVKPSQTLSLTCSVSGGSLNAGGYLWSWIRQPPGKGLEWVGYIYPSGTTYYNPSLQSRISISQDRSRNQFSLSVASVTAADTAVYYCARCGNEYGEVHPFDIWGQGTTVTVSS
VL: EIVLTQSPGTLSLSPGERATLSCRGSPIVGNNYLAWYQQKPGQAPRLLIYAASIRATGIPDRFSGSGSGTDFTLTISRLEPEDFAVYYCQQYGSSPWTFGQGTKVDIK
notes: full-length IgG; also called Antibody Number 329
Turning to B3, the “Neut IC50 subtype A” value in assay [1] was more than 10 µg/mL. In assay [2], the “Neut IC50 subtype B” value is more than 10 µg/mL. This molecule yielded a Kd in assay [3] of 0.28 nM.

B4: ADI-18990 (antibody, V domains shown)
VH: QVQLQESGPGRVKPSQTLSLTCTVSGVSVTINDYYWTWLRQSPGKGLEWIGNIYNSGSTYQNPSLQSRVTMSVDTAKNHFSLKLTSVTAADTAVYYCARDLGTANNYYFGMDVWGLGTTVTVSS
VL: DIVLTQSPATLSLSPGERATLSCRASQSVSTYLAWYQQKPGQAPRLLIYNGSNRVTGTPARFSGSGSGTDFTLTISSVEPEDFAVYYCQQRSNWPPYTFGQGTKVEIK
notes: full-length IgG
On to B4, for which the “Neut IC50 subtype A” value in assay [1] stood at 0.58 µg/mL. Also, the “Neut IC50 subtype B” value in assay [2] came out at 0.845 µg/mL. Also, the Kd came to 0.294 nM in assay [4] and 0.252 nM in assay [3].

B5: ADI-18982 (antibody, V domains shown)
VH: QVQLVQSGAEVKKPGASVKVSCKASGYIFTSYGVSWVRQAPGQGLKWMGWISGYNGNTNYDQKLQGRVTMTTDTSTSTAYMELRSLTSDDTAVYYCARDSFSETGTGFPDFWGQGTLVTVSS
VL: DIQMTQSPLSLPVTLGQPASISCRSSQSLEYSDGNTYLNWFQQRPGQSPRRLIYKVSNRDSGVPDRFSGSGSGTDFTLKISRVEAEDVGVYYCMQATHRPRTFGQGTKLEIK
notes: full-length IgG; also called Antibody Number 330
With B5, the “Neut IC50 subtype A” value in assay [1] was 0.018 µg/mL. Moreover, the “Neut IC50 subtype B” value in assay [2] stood at 0.053 µg/mL. The Kd in assay [4] was determined as 0.765 nM; in assay [3], 0.747 nM.

B6: ADI-18984 (antibody, V domains shown)
VH: QVQLQESGPGLVKPSETLSLTCTVSGASVTTNTYYWTWIRQPPGKELEWIGYIHHTGNTHYNPSLESRLTMSLDTSRNQFSLNLRSATTADTAVYYCARGEHFAYWWGNWGQGALVTVSS
VL: DIRVTQSPSSVSASVGDRVTITCRASQGIARWLAWYQQKPGKAPKLLIYAASSLQGGVPSRFSGSGYGTDFTLTISSLQPEDFATYYCQQANSFPRTFGQGTKVEIK
notes: full-length IgG
For B6, the “Neut IC50 subtype A” value in assay [1] is more than 10 µg/mL. For the same molecule, in assay [2], the “Neut IC50 subtype B” value is more than 10 µg/mL. In assay [3], this molecule showed a Kd of 0.659 nM.

B7: ADI-19001 (antibody, V domains shown)
VH: EVQLVESGGGLVKPGRSLRLSCTASGFNFGDYAMSWFRQAPGKGLEWVGFIRSKTYRETREYAASVKGRFTMSRDDFNRIAYLQMNSLKTEDTAMYYCTRQDDFWSGHPYYFEYWGQGTLVTVSS
VL: QPVLTQPPSASGSPGQSVTISCTGTNSDVGSYNYVSWYQHHPGKAPKLIIYDVAKRPSGVPDRFSGSKSGNTASLTVSGLQAEDEADYYCSSYAGSNDLGVFGTGTKLTVL
notes: full-length IgG; also called Antibody Number 349
As for B7, in assay [1], the “Neut IC50 subtype A” value was more than 10 µg/mL. In assay [2], the “Neut IC50 subtype B” value was found to be 3.26 µg/mL. Moreover, binding in assay [3] was characterised by a dissociation constant (Kd) of 0.149 nM.

B8: ADI-18998 (antibody, V domains shown)
VH: EVQLLESGPGLVKPSQTLSLTCTVSGGSINSIDYYWSWIRQPPGKGLEWIGYIYHSGSTHYRPSLKSRVTISLDKAKNEFSLSLTSVTAADTAVYFCASGPVGMATSNWFDPWGQGTLVTVSS
VL: QPVLTQPPSVSVTPGETARLPCEGDIVVTNSVHWYQQKPGQAPVLVVYYDSDRASGIPERFSGSNSGNTATLSISRVEAGDEADYYCQVWDSSTDHHVVFGGGTKLTVL
notes: full-length IgG; also called Antibody Number 346
Regarding B8, the “Neut IC50 subtype A” value in assay [1] is 0.055 µg/mL. Further, in assay [2], the “Neut IC50 subtype B” value worked out at 0.458 µg/mL. In assay [4], binding was characterised by a dissociation constant (Kd) of 12.4 nM.

B9: ADI-19013 (antibody, V domains shown)
VH: QVQLVQSGAEVKKPGESLKISCKGSGYSFSSYWIGWVRQMPGKGLEWMGIIYPGDSDTRYSPSLQGQVTISGDKSISTAFLQWSSLKASDTAMYYCARPMTTQEGFDLWGQGTMVTVSS
VL: DIRLTQSPSSVSASVGDRVTITCRASQGISDWLAWYQQKPGKAPKLLIYAASSLQSGVPSRFSGSGSGTDFTLTISSLQPEDFATYYCQQTNSFLPLTFGGGTKVDIK
notes: full-length IgG; also called Antibody Number 361
Consider B9, for which the “Neut IC50 subtype A” value in assay [1] was found to be 9.5 µg/mL. Besides, in assay [2], the “Neut IC50 subtype B” value is more than 10 µg/mL. Besides, the equilibrium dissociation constant (Kd) in assay [3] stood at 0.583 nM.

B10: ADI-18995 (antibody, V domains shown)
VH: EVQLVESGPGLVKPSETLSLSCIVSGGSITSGDYYWSWLRQSPGKGLEWIGYIYHSGATFYTPSLRSRVTISTDTSKNQFSLRLSSVTAADTAVYYCASGPVGMATSNWFDPWGQGTLVTVSS
VL: SYELTQPPSVSVAPGKTATITCGGDIIRTNSVNWYQQKPGQAPLLLIYYDSDRPSGIPERFSASNSGNTATLTISRVEAGDEADYYCQVWDSGTDYHVVFGGGTKLTVQ
notes: full-length IgG; also called Antibody Number 343
On to B10, for which, in assay [1], the “Neut IC50 subtype A” value is 0.043 µg/mL. Further, the “Neut IC50 subtype B” value in assay [2] is 0.125 µg/mL. Binding in assay [4] was characterised by a dissociation constant (Kd) of 12.3 nM.

B11: ADI-19012 (antibody, V domains shown)
VH: EVQLVESGPGLVKPSGTLSLTCAVSGDSIVGSDWWSWIRQPPGKGLEWIGDIYHGGTTSYNPSLKSRVTMSVDKSKNQFSLKLTSVTAADTAVYYCARLSGNCSGGSCYSPFDHWGQGTLVTVSS
VL: DIQMTQSPSSLSASVGDRVTITCRASQTINGYLNWYQQRPGKAPKLLISAASSLQSGVPSRFRGSGYGTDFTLTISSLQPEDFATYFCQQSYNTVYTFGQGTKVDIK
notes: full-length IgG; also called Antibody Number 360
As to B11, in assay [1], the “Neut IC50 subtype A” value is more than 10 µg/mL. In addition, in assay [2], the “Neut IC50 subtype B” value was more than 10 µg/mL. Also, in assay [3], the dissociation constant (Kd) came out at 0.314 nM.

B12: ADI-18989 (antibody, V domains shown)
VH: EVQLVESGGGLVQPGGSLRLSCAASGFSFNTYSMNWVRQAPGKGLEWLSFISSSSHTLYYADSVKGRFTVFRDNAKHSLFLQMNGLRDEDTAVYFCARSLGSGNYDNEDQTFYYYYGMDVWGQGTTVTVSS
VL: ETTLTQSPLSLPVTPGEPASISCRSSQSLLFHSNGHNYLDWYLQKPGQSPQLLIHLGSNRASGVPDRFSGSGSGTDFTLKISRVEPEDVGVYYCMQALQTPYTFGQGTKVEIK
notes: full-length IgG
Take B12: the “Neut IC50 subtype A” value in assay [1] was more than 10 µg/mL. The “Neut IC50 subtype B” value in assay [2] is more than 10 µg/mL. The same molecule returned a Kd in assay [3] of 0.377 nM.
